B1: SPDEF (parent)
chain: FQELAGKELCAMSEEQFRQRSPLG

Variants of: B1
Assay: protein stability index of a GFP-peptide fusion (GPS, HEK-293T) (PSI 1-6); higher = more stable
Conditions: c terminus: a fixed tail appended
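Note: lentivirally expressed fusions sorted by FACS into six bins by GFP to DsRed ratio, PSI derived from sequencing read proportions per bin multiplied by bin number.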

Variant | protein stability index
FQELAGKELCAMSEEQFRNRSPLG [Q19N] | 2.11
FQELAGKELCAMSEEQFRPRSPLG [Q19P] | 2.74
FQELAGKELCAMSEEQFRRRSPLG [Q19R] | 2.4
FQELAGKELCAMSEEQFRSRSPLG [Q19S] | 2.45
FQELAGKELCAMSEEQFRTRSPLG [Q19T] | 3.11
FQELAGKELCAMSEEQFRVRSPLG [Q19V] | 2.42
FQELAGKELCAMSEEQFRWRSPLG [Q19W] | 1.59
FQELAGKELCAMSEEQFRYRSPLG [Q19Y] | 2.3
FQELAGKELCAMSEEQFRQASPLG [R20A] | 2.79
FQELAGKELCAMSEEQFRQCSPLG [R20C] | 2.4
FQELAGKELCAMSEEQFRQDSPLG [R20D] | 3.47
FQELAGKELCAMSEEQFRQESPLG [R20E] | 3.71
FQELAGKELCAMSEEQFRQFSPLG [R20F] | 2.2
FQELAGKELCAMSEEQFRQGSPLG [R20G] | 2.49
FQELAGKELCAMSEEQFRQHSPLG [R20H] | 2.74
FQELAGKELCAMSEEQFRQISPLG [R20I] | 2.86
FQELAGKELCAMSEEQFRQKSPLG [R20K] | 2.51
FQELAGKELCAMSEEQFRQLSPLG [R20L] | 2.55
FQELAGKELCAMSEEQFRQMSPLG [R20M] | 2.1
FQELAGKELCAMSEEQFRQNSPLG [R20N] | 3.04
FQELAGKELCAMSEEQFRQPSPLG [R20P] | 2.58
FQELAGKELCAMSEEQFRQQSPLG [R20Q] | 2.72
FQELAGKELCAMSEEQFRQSSPLG [R20S] | 2.88
FQELAGKELCAMSEEQFRQTSPLG [R20T] | 2.91

Variant | protein stability index
FQELAGKELCAMSEEQFRQVSPLG [R20V] | 2.1
FQELAGKELCAMSEEQFRQWSPLG [R20W] | 2.52
FQELAGKELCAMSEEQFRQYSPLG [R20Y] | 2.43
FQELAGKELCAMSEEQFRQRAPLG [S21A] | 2.73
FQELAGKELCAMSEEQFRQRCPLG [S21C] | 2.51
FQELAGKELCAMSEEQFRQRDPLG [S21D] | 3.26
FQELAGKELCAMSEEQFRQREPLG [S21E] | 2.58
FQELAGKELCAMSEEQFRQRFPLG [S21F] | 3.17
FQELAGKELCAMSEEQFRQRGPLG [S21G] | 2.52
FQELAGKELCAMSEEQFRQRHPLG [S21H] | 2.82
FQELAGKELCAMSEEQFRQRIPLG [S21I] | 2.43
FQELAGKELCAMSEEQFRQRKPLG [S21K] | 2.44
FQELAGKELCAMSEEQFRQRLPLG [S21L] | 2.6
FQELAGKELCAMSEEQFRQRMPLG [S21M] | 2.74
FQELAGKELCAMSEEQFRQRNPLG [S21N] | 2.6
FQELAGKELCAMSEEQFRQRPPLG [S21P] | 2.43
FQELAGKELCAMSEEQFRQRQPLG [S21Q] | 2.98
FQELAGKELCAMSEEQFRQRRPLG [S21R] | 2.95
FQELAGKELCAMSEEQFRQRTPLG [S21T] | 2.59
FQELAGKELCAMSEEQFRQRVPLG [S21V] | 2.99
FQELAGKELCAMSEEQFRQRWPLG [S21W] | 2.4
FQELAGKELCAMSEEQFRQRYPLG [S21Y] | 2.96
FQELAGKELCAMSEEQFRQRSALG [P22A] | 2.64
FQELAGKELCAMSEEQFRQRSCLG [P22C] | 2.62

Variant | protein stability index
FQELAGKELCAMSEEQFRQRSDLG [P22D] | 2.62
FQELAGKELCAMSEEQFRQRSELG [P22E] | 3.15
FQELAGKELCAMSEEQFRQRSFLG [P22F] | 2.43
FQELAGKELCAMSEEQFRQRSGLG [P22G] | 2.61
FQELAGKELCAMSEEQFRQRSHLG [P22H] | 3.45
FQELAGKELCAMSEEQFRQRSILG [P22I] | 2.42
FQELAGKELCAMSEEQFRQRSKLG [P22K] | 2.77
FQELAGKELCAMSEEQFRQRSLLG [P22L] | 2.88
FQELAGKELCAMSEEQFRQRSMLG [P22M] | 2.56
FQELAGKELCAMSEEQFRQRSNLG [P22N] | 2.59
FQELAGKELCAMSEEQFRQRSQLG [P22Q] | 2.74
FQELAGKELCAMSEEQFRQRSRLG [P22R] | 2.53
FQELAGKELCAMSEEQFRQRSSLG [P22S] | 2.92
FQELAGKELCAMSEEQFRQRSTLG [P22T] | 2.63
FQELAGKELCAMSEEQFRQRSVLG [P22V] | 2.87
FQELAGKELCAMSEEQFRQRSWLG [P22W] | 1.75
FQELAGKELCAMSEEQFRQRSYLG [P22Y] | 2.2
FQELAGKELCAMSEEQFRQRSPAG [L23A] | 3.02
FQELAGKELCAMSEEQFRQRSPCG [L23C] | 2.63
FQELAGKELCAMSEEQFRQRSPDG [L23D] | 2.8
FQELAGKELCAMSEEQFRQRSPEG [L23E] | 3.48
FQELAGKELCAMSEEQFRQRSPFG [L23F] | 2.78
FQELAGKELCAMSEEQFRQRSPGG [L23G] | 3.31
FQELAGKELCAMSEEQFRQRSPHG [L23H] | 3.18

Variant | protein stability index
FQELAGKELCAMSEEQFRQRSPIG [L23I] | 2.9
FQELAGKELCAMSEEQFRQRSPKG [L23K] | 3.21
FQELAGKELCAMSEEQFRQRSPMG [L23M] | 2.84
FQELAGKELCAMSEEQFRQRSPNG [L23N] | 3.46
FQELAGKELCAMSEEQFRQRSPPG [L23P] | 3.25
FQELAGKELCAMSEEQFRQRSPQG [L23Q] | 3.58
FQELAGKELCAMSEEQFRQRSPRG [L23R] | 3.24
FQELAGKELCAMSEEQFRQRSPSG [L23S] | 3.16
FQELAGKELCAMSEEQFRQRSPTG [L23T] | 2.77
FQELAGKELCAMSEEQFRQRSPVG [L23V] | 3.09
FQELAGKELCAMSEEQFRQRSPWG [L23W] | 1.69
FQELAGKELCAMSEEQFRQRSPYG [L23Y] | 2.59
FQELAGKELCAMSEEQFRQRSPLA [G24A] | 2.94
FQELAGKELCAMSEEQFRQRSPLC [G24C] | 2.49
FQELAGKELCAMSEEQFRQRSPLD [G24D] | 3.14
FQELAGKELCAMSEEQFRQRSPLE [G24E] | 2.56
FQELAGKELCAMSEEQFRQRSPLF [G24F] | 2.05
FQELAGKELCAMSEEQFRQRSPLH [G24H] | 2.44
FQELAGKELCAMSEEQFRQRSPLI [G24I] | 2.1
FQELAGKELCAMSEEQFRQRSPLK [G24K] | 3.44
FQELAGKELCAMSEEQFRQRSPLL [G24L] | 2.67
FQELAGKELCAMSEEQFRQRSPLM [G24M] | 2.78

From the supplement of paper PMC10567573
